The supplement of paper PMC12764529
± gives the half width of the 95% confidence interval.

Tests used:
[1] = folding stability dG unfold from trypsin proteolysis; higher = more stable
How it was run: (§1)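 Designed mini-proteins (under 80 residues, no cysteine) in a PA-tagged cDNA display construct were digested with trypsin and chymotrypsin. Each protease was used at 11 concentrations (threefold dilutions) plus a no-protease condition, followed by sequencing. K50 was inferred by Bayesian fitting of sequencing counts, and unfolding free energy was derived against a sequence-predicted unfolded-state K50 and a shared folded-state K50, per protease or combined. Only designs with AlphaFold2 dimer inter-PAE above 15 were kept.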

[2] = folding stability dG unfold from chymotrypsin proteolysis; higher = more stable
How it was run: as §1

[3] = folding stability dG unfold (combined trypsin and chymotrypsin); higher = more stable
How it was run: as §1

| Sequence | folding stability dG unfold [1] [kcal/mol] | folding stability dG unfold [2] [kcal/mol] | folding stability dG unfold [3] [kcal/mol] |
| --- | --- | --- | --- |
| SAGAVELPPGVAAVERDPETGVVTATYPDGTVTRYTVSTEWDPTVGRTRPRVTVEVWSPDSRISTRDLPSAG [r5_109_JUSTAS] | 0.119 ± 0.31 | 0.799 ± 0.13 | 0.527 ± 0.12 |
| SAGGSAGGSAGGMVITVPKENLKELIDALRKEGKARIVSVEEKDGLVTITVELEDEELESAGGSAGGSAGGS [r10_695_TrROS_Hall] | 3.24 ± 0.18 | 2.28 ± 0.075 | 2.95 ± 0.11 |
| SAGMVTLRVKLKDGRELEIQLASEEEIESLPPGAKVIPIPAESEEEALEAAARLLAEEEGLEIEEVEKVSAG [r5_119_TrROS_Hall] | 0.671 ± 0.022 | 0.564 ± 0.074 | 0.638 ± 0.049 |
| SAGGSAGGSGKPLLLVRLKIRNKETGEEETVVLEADSLDEALARLPPGAEIVSIEVVRLDLPPSAGGSAGGS [r12_208_TrROS_Hall] | 4.34 ± 0.16 | 5.38 ± 0.075 | 5.34 ± 0.13 |
| SAWIEIEKDPDGMFELEIPWPDGHPVKIHYNPDDGKPLHIMFPNGWHLQIWISPDGKIEIEDIHPIPPNSAG [r14_877_TrROS] | 3.11 ± 0.24 | 3.12 ± 0.049 | 3.01 ± 0.13 |
| SAGGSAGGSMRLTVEVSSLEEAEKLAEEIEERFDVEIVRVEVEETEEGGLRVTFDVKLHPDLGSAGGSAGGS [r12_577_TrMRF] | 2.96 ± 0.16 | 2.94 ± 0.098 | 2.82 ± 0.18 |
| SAGGSATKVIYGMSVEEIRAAIKAGAKKIIIVADTEEQKKAAAEELEKEYNIKIEVKKIKPKKKKKSAGGSA [r15_243_TrROS_Hall] | 0.83 ± 0.065 | 2.22 ± 0.039 | 1.89 ± 0.17 |
| SAGGDATIVLTDFPEDDPEARIRTARNLYRELKAAGPPLRINILTDTPLGREVADYLESEGIEVGLGSAGGS [r16_450_TrMRF] | -0.828 ± 0.43 | -0.206 ± 0.26 | -0.33 ± 0.2 |
| SAGKPVKVTLNVVRLPGTGELVVFAEITYPDGSTAYAVARADLATGTVHVKLFDPNGKLLAELTVTLKPSAG [r14_524_TrMRF] | 3.64 ± 0.2 | 4.62 ± 0.11 | 4.4 ± 0.096 |
| SAGFTLKLEFPDSTVDVKVTKVDPKNNIIYAEALLPGGEKLTLTYNPETGEIEIEKKKLERTPDGGLEESAG [r14_466_JUSTAS] | 0.279 ± 0.14 | 1.51 ± 0.14 | 1.13 ± 0.16 |
| SAGGEGEILDKKEFTFPDNVKLEVYVFKVGDKYFVKVKTTITVPENPTKPKKPLKKITPEDIKKALEKSAGG [r13_760_TrMRF] | 0.151 ± 0.33 | 1.88 ± 0.21 | 1.5 ± 0.5 |
| SAGGSAGGSAGSSVKTYTGKGKKITITKLDNGTYIVTTPDKTSTYPPSVSEEEVIKKALESAGGSAGGSAGG [r17_272_JUSTAS] | 0.506 ± 0.093 | -0.0797 ± 0.44 | 0.282 ± 0.17 |
| SAGGMKTIEITIKTEDGYTIKIKITEKDGKLYIEIEIEDPNMSEEQREKIKKEIEELAKKLNIKVEIPSAGG [r13_774_TrROS_Hall] | 3.48 ± 0.31 | 2.8 ± 0.27 | 3.14 ± 0.42 |
| SAGGSAGGSAGMLKKSPSPSIITVKIKPPDSDEVKTINIPPDKPEEVEKLREKGLEIEVLSAGGSAGGSAGG [r11_1006_JUSTAS] | -0.459 ± 0.35 | -0.178 ± 0.37 | -0.211 ± 0.26 |
| SAGGSAGGSASNVKILGLVSVDPETGLVRLAAYDPETGKVLYFIAPNADGEPLLLEVEENPGSAGGSAGGSA [r18_296_TrMRF] | 1.8 ± 0.041 | 2.44 ± 0.056 | 2.21 ± 0.071 |
| SMLYRVTTVVVRGDRPLVIPVLADSLEAFLEEAREAIPPELREELPPDAVVRVFVEPVPAVVPEPGEPLPSA [r9_111_TrMRF] | 1.42 ± 0.057 | 2.03 ± 0.069 | 1.77 ± 0.25 |
| SAGGSAGGSAMLVIRVYFEDTGRVLTLTADSEEEALEAIKRLLPPGAKIKKVEIFEVSEEDLSAGGSAGGSA [r18_350_TrROS_Hall] | 4.08 ± 0.071 | 4.439 ± 0.041 | 4.33 ± 0.058 |
| SAGGSSMINLTITITVKDPSTGKVTTIPLNKKLTPEEIEELVKEIIEKIEKENPDKPIEVLKVEINSAGGSA [r2_59_JUSTAS] | 3.4 ± 0.21 | 2.48 ± 0.12 | 2.81 ± 0.25 |
| SANWHRFTIEAWVPVRDPNGKPIRPEQVEEQAERIANELWPRGFPIKDVTVEQHPDGWVRITATIEVPDSAG [r14_470_TrROS] | 2.47 ± 0.08 | 3.137 ± 0.022 | 2.94 ± 0.11 |
| SLDKARDILREHGMEPTSIDVVEDGWVKVTWEYPGNKVEIFIPEDGNIMIEFRNPNNGQRVERTIPVDDVSA [r9_2_TrROS] | -0.489 ± 0.2 | 0.753 ± 0.14 | 0.472 ± 0.15 |
| SAGGSAIEIEPAPDNVLVVTADLPPNVPAEKLVEALKDLIPDVEFETSSSADGRHVIVLRLPPDVFSAGGSA [r15_1047_TrMRF] | 1.05 ± 0.044 | 0.961 ± 0.06 | 1.05 ± 0.07 |

| Sequence | folding stability dG unfold [1] [kcal/mol] | folding stability dG unfold [2] [kcal/mol] | folding stability dG unfold [3] [kcal/mol] |
| --- | --- | --- | --- |
| SAGGNMWMVRVKIDDGKTFMITSPEDIEEYLKKKLGPNYKIKEVEWHRMPPPNGPPMPMHEFEIEVPSAGGS [r16_408_TrROS] | 1.28 ± 0.062 | 2.02 ± 0.1 | 1.76 ± 0.16 |
| SAGGSAGGSAGGMPLTLTSETVTVERDPTSNNVVTTTTTTYKLPNGTLVTVTTTTTSPTTSAGGSAGGSAGG [r7_267_JUSTAS] | 2.38 ± 0.1 | 2.21 ± 0.034 | 2.33 ± 0.06 |
| SAGMKTVTVKVKISEEEREKLKELGFEIVEEKEDYLVIKVKVPPELSEEELEEAKKEGMTLEEALAKLSAGG [r19_115_TrROS_Hall] | 2.05 ± 0.12 | 1.71 ± 0.077 | 1.74 ± 0.27 |
| SAGGEYTVVSVLEERKDPATGKTVTLELLKDPNSNVLYRRVTTTDPANPDVVTTTLYDAAGNKVSTVSSAGG [r13_658_JUSTAS] | 2.17 ± 0.046 | 2.62 ± 0.055 | 2.48 ± 0.095 |
| SAGGSAGGSAGKKKKIFLIKIEVVKVKVEKRKKKDGKLEEKVEIEIKIEITEIPLPPELLSAGGSAGGSAGG [r11_24_TrROS_Hall] | 2.81 ± 0.12 | 3.02 ± 0.058 | 2.94 ± 0.19 |
| SAGGSAGGSAMKYTVTVTLPNGTTLTLDVGTETEEEAVSETKKLIAEKYPDVKGAKIDLTKESAGGSAGGSA [r18_434_JUSTAS] | 1.88 ± 0.11 | 2.52 ± 0.038 | 2.33 ± 0.13 |
| SAGGMKPGEKTIRLLLKLPPGEELTPEQVEELAKRLAEELREKGYEVEVEVVERDGELYVLVEVRFPESAGG [r13_442_TrROS_Hall] | 3.55 ± 0.1 | 4.275 ± 0.034 | 4.1 ± 0.044 |
| SAGGSAAVTITSVPPDGTIRATATNPTNGETVTITFSPETSPEEAVAAIQKELGGPVPVTAVTPAGSAGGSA [r15_544_JUSTAS] | 0.975 ± 0.033 | 1.57 ± 0.062 | 1.42 ± 0.1 |
| SAGGSAGGSAGDWIKFEYTFKWNFFDPDGDLLMNMTVRVTIEIPIPPVPKPVKPSPNDDNSAGGSAGGSAGG [r17_325_TrROS] | 3.52 ± 0.13 | 5.4 ± 0.15 | 5.34 ± 0.22 |
| SAGGSMKPAKKITFTFPDGRKAEIFFYPEEDTIELRIYFPETGTFVEIPVKSPEDLIETLKKLLAESAGGSA [r2_70_TrMRF] | 4.02 ± 0.16 | 3.7 ± 0.14 | 3.75 ± 0.16 |
| SAGGNMFMIKIDDPDALKELANEPGISSVHYNPNNGRYTVMFNFPDGMRTFEIDAEDGKIKEIEPFPSAGGS [r8_251_TrROS] | 1.58 ± 0.034 | 1.82 ± 0.037 | 1.79 ± 0.039 |
| SPNMQPVEMEFKIKVPGKPVDIKIEMWRMPDGQTRMDIRYPDGRSIMFNPSNGSIKIYDPKDGKPLAEISSA [r9_970_TrROS] | 1.1 ± 0.057 | 1.47 ± 0.073 | 1.38 ± 0.16 |
| SAGGSAGGSAGELTVTVTVLLEDGTAVKIEARFELDENGNLHLEVKVEVVKLPELSPEDLSAGGSAGGSAGG [r11_728_TrROS_Hall] | 3.4 ± 0.43 | 2.25 ± 0.2 | 2.74 ± 0.32 |
| SAGGSAGGSVKITTEPDPNGYYRVTVTIRLNDKPIPVDMPFPPGKTPDQVKEKARDIAKELLKSAGGSAGGS [r12_69_TrROS] | 0.249 ± 0.089 | 0.546 ± 0.13 | 0.455 ± 0.091 |
| SAGGSAGDPSLPQPQYIAFLLVTKPGGVEEPLEVEVKTEEEAEKIAQEVRDAGYEVELELRPAALLSAGGSA [r15_906_JUSTAS] | 1.72 ± 0.16 | 0.945 ± 0.28 | 1.44 ± 0.38 |
| SAGGSAMREIRVGDTVVRILSIDPSTGEVHIAVREDLPPETIEAARRALEEAGLRFRVEPVPEELLSAGGSA [r15_570_TrMRF] | 1.73 ± 0.065 | 2.33 ± 0.028 | 2.15 ± 0.053 |
| SAGGSAGGMTSDKPVLPALIRVYYPNEGREETIPVLLGEDMPLEEALRIARELAHPDAKAEILNSAGGSAGG [r6_440_TrMRF] | -0.183 ± 0.093 | 0.624 ± 0.053 | 0.395 ± 0.06 |
| SAEEELRKALENMSDEELEALLRAAAPPPKTVTIRLSEEELEKLAQELADEYNVTVTVEVDGKTLTLTLSAG [r14_7_TrROS_Hall] | 1.69 ± 0.024 | 1.74 ± 0.051 | 1.76 ± 0.049 |
| SAGGSAGGSDKIKELAKKLKIVKVEKKKDGKYILLVKDEKTGKLYEIEVDLKTNKVTIKELKPSAGGSAGGS [r12_944_TrROS_Hall] | 2.81 ± 0.26 | 4.31 ± 0.13 | 3.82 ± 0.39 |
| SAGGSAGGSAPPNDWYVGIMEITININIDADQLPPPLREKFEKNGIKEIRITFVSVFPPDDFSAGGSAGGSA [r18_127_TrROS] | 2.76 ± 0.21 | 3.56 ± 0.11 | 3.14 ± 0.19 |
| SAGMPLPAEELAERLAKEIEESTDYKVSIEEIKPEGEYVIIKVRVELPEKYKDKGYEEEEFVAIFPGDLSAG [r5_970_TrMRF] | 0.703 ± 0.073 | 0.806 ± 0.16 | 0.702 ± 0.25 |
